These results are taken from paper PMC8593083 (2021).

B1: NSD2 E1099K mutant protein (973-1226) (domain or fragment)
chain: KLQREARETQESERKPPPYKHIKVNKPYGKVQIYTADISEIPKCNCKPTDENPCGFDSECLNRMLMFECHPQVCPAGEFCQNQCFTKRQYPETKIIKTDGKGWGLVAKRDIRKGEFVNEYVGELIDKEECMARIKHAHENDITHFYMLTIDKDRIIDAGPKGNYSRFMNHSCQPNCETLKWTVNGDTRVGLFAVCDIPAGTELTFNYNLDCLGNEKTVCRCGASNCSGFLGDRPKTSTTLSSEEKGKKTKKKTR
B2: NSD2 T1150A mutant protein (973-1226) (domain or fragment)
chain: B1 chain with K127E, T178A
B3: wild-type NSD2 protein (973-1226) (domain or fragment)
chain: B1 chain with K127E

Where a chain is given by its changes, count along the chain named. In names and notes the source's numbering stands.

In the first experiment the target is T1, nucleosome with the 185-bp DNA fragment (human, UniProt P0C0S8 2-130; P62807 2-124; P68431 2-136; P62805 2-103). Put plainly: nucleosome with 185-bp DNA.
In turn, B1 came in with a Kd of 202 nM.
In the case of B2, the Kd came out at 70 nM.
Same read-out and setting: as for B3, the figure is 88 nM.

Another experiment has as its target T1, nucleosome with the 185-bp DNA fragment. As to the kind of experiment: MST; 185-bp nucleosome.
B1: the affinity, expressed as Kd, was 202 nM.
On the same count and under the same terms, the figure for B2 is 70 nM; for B3 it is 88 nM.

As a reminder, the Kd is a measure of binding affinity in units of concentration. A higher Kd goes with weaker binding.
